Measured values: the RNAGym collection of RNA variant scans (doi:10.1021/acssynbio.7b00057)

B1: Pistol ribozyme (parent)
chain: GGGUCGUUGUUCCAUAAUCGCGUGGAUAUGGCACGCAAGUUUCUACCGGGCACCGUAAAUGUCCGACUGGAGCCGUUCGGGCGGCUAUAAACAGACCUCAGGCCCGAAGCGUGGCGGCACCUGCCGCCGGUGGUAAAAAAGAUCGGAAGAGCACACGUCU

Variants of: B1
Assay: aptazyme ON/OFF ratio, guanine; higher = stronger switching; co-transcriptional cleavage with and without guanine

Q: Which “aptazyme ON/OFF ratio” value does the source give for U7G here?
A: The value was 1.89.

Q: For U7G G9A U10C C12A C13A, which “aptazyme ON/OFF ratio” value is on record?
A: The value was 1.14.

Q: With U7G G9A U10C C12A C13G as the variant, how does the “aptazyme ON/OFF ratio” value read?
A: Its value is 1.13.

Q: For U7G G9A U10C C12A C13U, which “aptazyme ON/OFF ratio” value is on record?
A: The value was 1.15.

Q: Which “aptazyme ON/OFF ratio” value does the source give for U7G G9C U10A C12A here?
A: The value was 1.43.

Q: With U7G G9C U10A C12G as the variant, how does the “aptazyme ON/OFF ratio” value read?
A: Its value is 1.4.

Q: Which “aptazyme ON/OFF ratio” value does the source give for U7G G9C U10A C12U here?
A: Its value is 1.18.

Q: Which “aptazyme ON/OFF ratio” value does the source give for U7G G9A U11G C12U C13U here?
A: The value was 1.2.

Q: Which “aptazyme ON/OFF ratio” value does the source give for U7G G9A U11G C12U C13G here?
A: The value was 1.11.

Q: With U7G G9A U11G C12U C13A as the variant, how does the “aptazyme ON/OFF ratio” value read?
A: The value was 1.09.

Q: Which “aptazyme ON/OFF ratio” value does the source give for U7G G9A U10C U11A C13A here?
A: Its value is 1.17.

Q: For U7G G9A U10C U11A C13G, which “aptazyme ON/OFF ratio” value is on record?
A: Its value is 1.09.

Q: With U7G G9A U10C U11A C13U as the variant, how does the “aptazyme ON/OFF ratio” value read?
A: Its value is 1.19.

Q: For U7G G9A U11C C12U C13G, which “aptazyme ON/OFF ratio” value is on record?
A: The value was 1.19.

Q: For U7G G9A U11C C12U C13A, which “aptazyme ON/OFF ratio” value is on record?
A: The value was 1.15.

Q: With U7G G9A U11C C12U C13U as the variant, how does the “aptazyme ON/OFF ratio” value read?
A: Its value is 1.3.

Q: With U7G G9C C12A C13A as the variant, how does the “aptazyme ON/OFF ratio” value read?
A: The value was 1.42.

Q: With U7G G9C C12A C13U as the variant, how does the “aptazyme ON/OFF ratio” value read?
A: Its value is 1.34.

Q: For U7G G9C C12A C13G, which “aptazyme ON/OFF ratio” value is on record?
A: Its value is 1.33.

Q: With U7G G9A C12A C13U as the variant, how does the “aptazyme ON/OFF ratio” value read?
A: Its value is 1.13.

Q: Which “aptazyme ON/OFF ratio” value does the source give for U7G G9A C12A C13G here?
A: The value was 1.15.

Q: With U7G G9A C12A C13A as the variant, how does the “aptazyme ON/OFF ratio” value read?
A: Its value is 1.09.

Q: For U7G G9A U11A C12G C13A, which “aptazyme ON/OFF ratio” value is on record?
A: Its value is 1.08.

Q: Which “aptazyme ON/OFF ratio” value does the source give for U7G G9A U11A C12G C13U here?
A: The value was 1.12.

Q: Which “aptazyme ON/OFF ratio” value does the source give for U7G G9A U11A C12G C13G here?
A: The value was 1.13.

Q: For U7G G9C U10A C12U C13A, which “aptazyme ON/OFF ratio” value is on record?
A: Its value is 1.09.

Q: For U7G G9C U10A C12U C13U, which “aptazyme ON/OFF ratio” value is on record?
A: Its value is 1.07.

Q: For U7G G9C U10A C12U C13G, which “aptazyme ON/OFF ratio” value is on record?
A: Its value is 1.05.

Q: For U7G G9A U10C U11G C13G, which “aptazyme ON/OFF ratio” value is on record?
A: Its value is 1.17.

Q: For U7G G9A U10C U11G C13A, which “aptazyme ON/OFF ratio” value is on record?
A: Its value is 1.09.

Q: Which “aptazyme ON/OFF ratio” value does the source give for U7G G9A U10C U11G C13U here?
A: The value was 1.14.

Q: Which “aptazyme ON/OFF ratio” value does the source give for U7G G9A U10G U11C C12G C13G here?
A: Its value is 1.08.

Q: With U7G G9A U10G U11C C12G C13U as the variant, how does the “aptazyme ON/OFF ratio” value read?
A: The value was 1.1.

Q: Which “aptazyme ON/OFF ratio” value does the source give for U7G G9A U10G U11C C12G C13A here?
A: Its value is 1.08.

Q: For U7G C13A, which “aptazyme ON/OFF ratio” value is on record?
A: The value was 1.08.

Q: Which “aptazyme ON/OFF ratio” value does the source give for U7G C13U here?
A: The value was 1.09.

Q: With U7G C13G as the variant, how does the “aptazyme ON/OFF ratio” value read?
A: Its value is 1.05.

Q: For U7G G9A U10C U11A C12U C13U, which “aptazyme ON/OFF ratio” value is on record?
A: The value was 1.04.

Q: With U7G G9A U10C U11A C12U C13G as the variant, how does the “aptazyme ON/OFF ratio” value read?
A: Its value is 1.05.

Q: Which “aptazyme ON/OFF ratio” value does the source give for U7G G9A U10C U11A C12U C13A here?
A: Its value is 1.11.

Q: With U7G G9A U11C C13A as the variant, how does the “aptazyme ON/OFF ratio” value read?
A: Its value is 1.11.

Q: For U7G G9A U11C C13G, which “aptazyme ON/OFF ratio” value is on record?
A: Its value is 1.09.

Q: For U7G G9A U11C C13U, which “aptazyme ON/OFF ratio” value is on record?
A: Its value is 1.14.

Q: With U7G G9A U11G C13G as the variant, how does the “aptazyme ON/OFF ratio” value read?
A: The value was 1.1.

Q: For U7G G9A U11G C13U, which “aptazyme ON/OFF ratio” value is on record?
A: The value was 1.16.

Q: Which “aptazyme ON/OFF ratio” value does the source give for U7G G9A U11G C13A here?
A: The value was 1.11.

Q: Which “aptazyme ON/OFF ratio” value does the source give for U7G G9A U10G U11G C13G here?
A: The value was 1.09.

Q: Which “aptazyme ON/OFF ratio” value does the source give for U7G G9A U10G U11G C13U here?
A: The value was 1.14.

Q: For U7G G9A U10G U11G C13A, which “aptazyme ON/OFF ratio” value is on record?
A: Its value is 1.05.

Q: For U7G G9A U11C C12A, which “aptazyme ON/OFF ratio” value is on record?
A: The value was 1.34.

Q: Which “aptazyme ON/OFF ratio” value does the source give for U7G G9A U11C C12G here?
A: Its value is 1.27.

Q: For U7G G9A U11C C12U, which “aptazyme ON/OFF ratio” value is on record?
A: The value was 1.39.

Q: Which “aptazyme ON/OFF ratio” value does the source give for U7G G9A U10G U11A C12U here?
A: The value was 1.07.

Q: Which “aptazyme ON/OFF ratio” value does the source give for U7G G9A U10G U11A C12G here?
A: Its value is 1.07.

Q: With U7G G9A U10G U11A C12A as the variant, how does the “aptazyme ON/OFF ratio” value read?
A: The value was 1.09.

Q: With U7G C12U as the variant, how does the “aptazyme ON/OFF ratio” value read?
A: Its value is 1.39.

Q: For U7G C12G, which “aptazyme ON/OFF ratio” value is on record?
A: The value was 1.25.

Q: For U7G C12A, which “aptazyme ON/OFF ratio” value is on record?
A: Its value is 1.14.

Q: For U7G G9C U10A U11A C12A C13A, which “aptazyme ON/OFF ratio” value is on record?
A: The value was 1.36.

Q: With U7G G9C U10A U11A C12A C13G as the variant, how does the “aptazyme ON/OFF ratio” value read?
A: Its value is 1.15.

Q: With U7G G9C U10A U11A C12A C13U as the variant, how does the “aptazyme ON/OFF ratio” value read?
A: Its value is 1.29.

Q: For U7G G9A U10C C12U C13A, which “aptazyme ON/OFF ratio” value is on record?
A: Its value is 1.18.

Q: With U7G G9A U10C C12U C13U as the variant, how does the “aptazyme ON/OFF ratio” value read?
A: Its value is 1.19.

Q: For U7G G9A U10C C12U C13G, which “aptazyme ON/OFF ratio” value is on record?
A: The value was 1.15.

Q: With U7G G9A U10A U11C C12U C13G as the variant, how does the “aptazyme ON/OFF ratio” value read?
A: The value was 1.15.

Q: For U7G G9A U10A U11C C12U C13U, which “aptazyme ON/OFF ratio” value is on record?
A: The value was 1.2.

Q: Which “aptazyme ON/OFF ratio” value does the source give for U7G G9A U10A U11C C12U C13A here?
A: Its value is 1.15.

Q: With U7G G9A C12G as the variant, how does the “aptazyme ON/OFF ratio” value read?
A: The value was 1.2.

Q: Which “aptazyme ON/OFF ratio” value does the source give for U7G G9A C12A here?
A: Its value is 1.25.

Q: With U7G G9A C12U as the variant, how does the “aptazyme ON/OFF ratio” value read?
A: The value was 1.41.

Q: With U7G G9A U10A U11C C12G C13G as the variant, how does the “aptazyme ON/OFF ratio” value read?
A: Its value is 1.1.

Q: Which “aptazyme ON/OFF ratio” value does the source give for U7G G9A U10A U11C C12G C13U here?
A: Its value is 1.18.

Q: Which “aptazyme ON/OFF ratio” value does the source give for U7G G9A U10A U11C C12G C13A here?
A: Its value is 1.1.

Q: For U7G G9A U10C U11C C12U C13U, which “aptazyme ON/OFF ratio” value is on record?
A: The value was 1.07.

Q: Which “aptazyme ON/OFF ratio” value does the source give for U7G G9A U10C U11C C12U C13A here?
A: The value was 1.05.

Q: For U7G G9A U10C U11C C12U C13G, which “aptazyme ON/OFF ratio” value is on record?
A: The value was 1.04.

Q: For U7G G9A U10C C12G C13U, which “aptazyme ON/OFF ratio” value is on record?
A: The value was 1.27.

Q: For U7G G9A U10C C12G C13G, which “aptazyme ON/OFF ratio” value is on record?
A: The value was 1.19.

Q: With U7G G9A U10C C12G C13A as the variant, how does the “aptazyme ON/OFF ratio” value read?
A: Its value is 1.09.

Q: Which “aptazyme ON/OFF ratio” value does the source give for U7G G9C U10A U11A here?
A: The value was 2.95.

Q: Which “aptazyme ON/OFF ratio” value does the source give for U7G G9C U10A U11C here?
A: Its value is 1.17.

Q: Which “aptazyme ON/OFF ratio” value does the source give for U7G G9C U10A C12G C13G here?
A: The value was 1.1.

Q: Which “aptazyme ON/OFF ratio” value does the source give for U7G G9C U10A C12G C13U here?
A: The value was 1.28.
